Target: RecQ-ΔΔC (E. coli RecQ variant lacking both the WH and HRDC domains) (Escherichia coli)

Sequence of E. coli ssDNA-binding protein (SSB) (P0AGE0 whole entry): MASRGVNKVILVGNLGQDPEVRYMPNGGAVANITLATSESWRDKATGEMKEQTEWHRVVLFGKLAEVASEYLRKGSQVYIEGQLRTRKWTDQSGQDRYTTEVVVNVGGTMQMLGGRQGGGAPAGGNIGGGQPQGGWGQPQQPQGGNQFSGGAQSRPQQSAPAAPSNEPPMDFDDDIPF

average unwinding processivity of RecQ-ΔΔC with SSB: 2.5 kb
Substance: E. coli ssDNA-binding protein (SSB) (from UniProt P0AGE0 1-178) (natural protein)

From publication PMC6144805
